These results are taken from IntAct's records for PubMed 29892012.

Sequences and labels used below:
B1: F-box only protein 11 (Homo sapiens), Q86XK2 (parent)
chain: MNSVRAANRRPRRVSRPRPVQQQQQQPPQQPPPQPPQQQPPQQQPPPPPQQQQQQQPPPPPPPPPPLPQERNNVGERDDDVPADMVAEESGPGAQNSPYQLRRKTLLPKRTACPTKNSMEGASTSTTENFGHRAKRARVSGKSQDLSAAPAEQYLQEKLPDEVVLKIFSYLLEQDLCRAACVCKRFSELANDPILWKRLYMEVFEYTRPMMHPEPGKFYQINPEEYEHPNPWKESFQQLYKGAHVKPGFAEHFYSNPARYKGRENMLYYDTIEDALGGVQEAHFDGLIFVHSGIYTDEWIYIESPITMIGAAPGKVADKVIIENTRDSTFVFMEGSEDAYVGYMTIRFNPDDKSAQHHNAHHCLEITVNCSPIIDHCIIRSTCTVGSAVCVSGQGACPTIKHCNISDCENVGLYITDHAQGIYEDNEISNNALAGIWVKNHGNPIIRRNHIHHGRDVGVFTFDHGMGYFESCNIHRNRIAGFEVKAYANPTVVRCEIHHGQTGGIYVHEKGRGQFIENKIYANNFAGVWITSNSDPTIRGNSIFNGNQGGVYIFGDGRGLIEGNDIYGNALAGIQIRTNSCPIVRHNKIHDGQHGGIYVHEKGQGVIEENEVYSNTLAGVWVTTGSTPVLRRNRIHSGKQVGVYFYDNGHGVLEDNDIYNHMYSGVQIRTGSNPKIRRNKIWGGQNGGILVYNSGLGCIEDNEIFDNAMAGVWIKTDSNPTLRRNKIHDGRDGGICIFNGGRGLLEENDIFRNAQAGVLISTNSHPILRKNRIFDGFAAGIEITNHATATLEGNQIFNNRFGGLFLASGVNVTMKDNKIMNNQDAIEKAVSRGQCLYKISSYTSYPMHDFYRCHTCNTTDRNAICVNCIKKCHQGHDVEFIRHDRFFCDCGAGTLSNPCTLAGEPTHDTDTLYDSAPPIESNTLQHN
B2: Abl interactor 2 (Homo sapiens), Q9NYB9 (parent)
chain: MAELQMLLEEEIPGGRRALFDSYTNLERVADYCENNYIQSADKQRALEETKAYTTQSLASVAYLINTLANNVLQMLDIQASQLRRMESSINHISQTVDIHKEKVARREIGILTTNKNTSRTHKIIAPANLERPVRYIRKPIDYTILDDIGHGVKWLLRFKVSTQNMKMGGLPRTTPPTQKPPSPPMSGKGTLGRHSPYRTLEPVRPPVVPNDYVPSPTRNMAPSQQSPVRTASVNQRNRTYSSSGSSGGSHPSSRSSSRENSGSGSVGVPIAVPTPSPPSVFPAPAGSAGTPPLPATSASAPAPLVPATVPSSTAPNAAAGGAPNLADGFTSPTPPVVSSTPPTGHPVQFYSMNRPASRHTPPTIGGSLPYRRPPSITSQTSLQNQMNGGPFYSQNPVSDTPPPPPPVEEPVFDESPPPPPPPEDYEEEEAAVVEYSDPYAEEDPPWAPRSYLEKVVAIYDYTKDKEDELSFQEGAIIYVIKKNDDGWYEGVMNGVTGLFPGNYVESIMHYSE
partner: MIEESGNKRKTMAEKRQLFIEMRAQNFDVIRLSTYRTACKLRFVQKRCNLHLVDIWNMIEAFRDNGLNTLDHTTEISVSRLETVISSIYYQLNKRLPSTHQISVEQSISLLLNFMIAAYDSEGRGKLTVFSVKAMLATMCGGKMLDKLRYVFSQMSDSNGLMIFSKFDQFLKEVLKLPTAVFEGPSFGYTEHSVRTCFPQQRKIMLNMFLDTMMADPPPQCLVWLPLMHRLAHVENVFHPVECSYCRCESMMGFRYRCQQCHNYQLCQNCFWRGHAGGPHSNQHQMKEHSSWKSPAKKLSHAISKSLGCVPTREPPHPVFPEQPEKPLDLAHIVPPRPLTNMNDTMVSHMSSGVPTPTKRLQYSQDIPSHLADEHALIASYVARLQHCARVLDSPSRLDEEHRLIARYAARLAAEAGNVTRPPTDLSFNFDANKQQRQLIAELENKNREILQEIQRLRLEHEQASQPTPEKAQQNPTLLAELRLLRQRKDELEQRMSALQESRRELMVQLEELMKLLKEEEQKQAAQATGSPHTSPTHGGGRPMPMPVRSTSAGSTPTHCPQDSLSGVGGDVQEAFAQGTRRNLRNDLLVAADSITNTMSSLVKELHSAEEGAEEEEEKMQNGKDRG
B3: Acetylcholine receptor subunit gamma (Homo sapiens), P07510 (parent)
chain: MHGGQGPLLLLLLLAVCLGAQGRNQEERLLADLMQNYDPNLRPAERDSDVVNVSLKLTLTNLISLNEREEALTTNVWIEMQWCDYRLRWDPRDYEGLWVLRVPSTMVWRPDIVLENNVDGVFEVALYCNVLVSPDGCIYWLPPAIFRSACSISVTYFPFDWQNCSLIFQSQTYSTNEIDLQLSQEDGQTIEWIFIDPEAFTENGEWAIQHRPAKMLLDPAAPAQEAGHQKVVFYLLIQRKPLFYVINIIAPCVLISSVAILIHFLPAKAGGQKCTVAINVLLAQTVFLFLVAKKVPETSQAVPLISKYLTFLLVVTILIVVNAVVVLNVSLRSPHTHSMARGVRKVFLRLLPQLLRMHVRPLAPAAVQDTQSRLQNGSSGWSITTGEEVALCLPRSELLFQQWQRQGLVAAALEKLEKGPELGLSQFCGSLKQAAPAIQACVEACNLIACARHQQSHFDNGNEEWFLVGRVLDRVCFLAMLSLFICGTAGIFLMAHYNRVPALPFPGDPRPYLPSPD

The variants in one assay derive from B1. Particulars: with skp1_human SKP1, P63208.
skp1_human SKP1, P63208, sequence (P63208 whole entry): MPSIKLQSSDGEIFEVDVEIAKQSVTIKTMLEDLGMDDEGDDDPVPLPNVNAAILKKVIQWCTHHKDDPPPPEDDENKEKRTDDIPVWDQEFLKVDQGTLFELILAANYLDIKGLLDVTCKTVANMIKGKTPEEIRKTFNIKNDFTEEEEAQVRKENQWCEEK
On to Y692F, for which the “effect of a mutation on the interaction” value is reported as “with no effect”.

Another assay covers variants of B2. Particulars: with dtnb_human DTNB.
Regarding E202K, the “effect of a mutation on the interaction” value is recorded as “with no effect”.

Another assay covers variants of B2. Particulars: with dtnb_human DTNB. The source holds these as a separate data set.
In the case of R373C, the “effect of a mutation on the interaction” value is given as “with no effect”.

The next assay covers variants of B3. Particulars: with kr108_human KRTAP10-8, P60410.
kr108_human KRTAP10-8, P60410, sequence (P60410 whole entry): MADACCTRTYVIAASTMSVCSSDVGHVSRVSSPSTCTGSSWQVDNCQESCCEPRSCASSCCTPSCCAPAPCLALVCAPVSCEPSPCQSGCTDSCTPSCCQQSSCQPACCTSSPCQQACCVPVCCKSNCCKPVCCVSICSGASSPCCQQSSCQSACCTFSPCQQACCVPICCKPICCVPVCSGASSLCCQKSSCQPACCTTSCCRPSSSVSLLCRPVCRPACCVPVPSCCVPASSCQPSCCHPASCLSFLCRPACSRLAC
Turning to I448T, the “effect of a mutation on the interaction” value was “with no effect”.

Variants of B3 are the subject of another assay. Particulars: with kr103_human KRTAP10-3, P60369.
kr103_human KRTAP10-3, P60369, sequence (P60369 whole entry): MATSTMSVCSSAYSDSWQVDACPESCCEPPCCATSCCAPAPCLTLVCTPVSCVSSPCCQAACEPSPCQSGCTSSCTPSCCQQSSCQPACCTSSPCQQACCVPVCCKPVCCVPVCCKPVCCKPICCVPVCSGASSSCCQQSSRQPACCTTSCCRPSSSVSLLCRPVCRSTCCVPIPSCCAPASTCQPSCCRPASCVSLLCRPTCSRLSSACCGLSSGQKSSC
With I448T, the “effect of a mutation on the interaction” value is reported as “with no effect”.

Variants of B3 are the subject of a further assay. Particulars: with k1h1_human KRT31, Q15323.
k1h1_human KRT31, Q15323, sequence (Q15323 whole entry): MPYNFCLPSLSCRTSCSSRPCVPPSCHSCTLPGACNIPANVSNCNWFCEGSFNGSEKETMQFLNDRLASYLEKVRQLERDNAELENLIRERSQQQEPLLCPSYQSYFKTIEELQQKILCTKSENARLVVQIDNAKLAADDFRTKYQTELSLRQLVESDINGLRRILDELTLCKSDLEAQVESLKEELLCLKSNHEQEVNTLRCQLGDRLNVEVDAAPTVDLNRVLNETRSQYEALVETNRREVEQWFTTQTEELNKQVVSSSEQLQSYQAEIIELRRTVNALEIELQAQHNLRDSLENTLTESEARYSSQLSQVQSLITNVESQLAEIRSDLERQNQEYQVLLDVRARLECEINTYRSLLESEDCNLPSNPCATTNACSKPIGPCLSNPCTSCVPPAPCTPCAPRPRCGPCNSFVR
As for I448T, the “effect of a mutation on the interaction” value was “with no effect”.

Variants of B3 are the subject of another assay. Particulars: with nt2na_human NOTCH2NLA.
Consider I448T, for which the “effect of a mutation on the interaction” value is on record as “with no effect”.
